For this assay, the target named is T1, carcinoembryonic antigen (CEA), purified antigen (UniProt P06731 35-685).
T1 construct: Purified CEA coated on ELISA wells; also called CEA antigen
T1 sequence (looked up): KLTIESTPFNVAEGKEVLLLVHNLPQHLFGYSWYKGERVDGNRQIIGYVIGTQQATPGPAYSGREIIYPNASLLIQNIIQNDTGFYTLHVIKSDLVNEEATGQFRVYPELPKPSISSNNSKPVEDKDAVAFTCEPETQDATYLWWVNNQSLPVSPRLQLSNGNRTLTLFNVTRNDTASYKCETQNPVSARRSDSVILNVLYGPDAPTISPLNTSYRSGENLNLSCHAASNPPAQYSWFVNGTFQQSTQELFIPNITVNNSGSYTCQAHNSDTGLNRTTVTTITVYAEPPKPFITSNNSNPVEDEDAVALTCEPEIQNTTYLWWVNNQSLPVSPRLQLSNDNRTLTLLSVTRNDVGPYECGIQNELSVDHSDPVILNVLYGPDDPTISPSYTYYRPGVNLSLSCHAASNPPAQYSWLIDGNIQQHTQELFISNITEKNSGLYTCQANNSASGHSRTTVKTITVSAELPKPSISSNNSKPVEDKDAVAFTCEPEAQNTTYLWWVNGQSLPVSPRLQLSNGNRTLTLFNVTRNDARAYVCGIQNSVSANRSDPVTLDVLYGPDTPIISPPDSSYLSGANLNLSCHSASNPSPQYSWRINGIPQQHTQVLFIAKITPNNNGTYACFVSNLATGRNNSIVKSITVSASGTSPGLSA
Kind of assay: ELISA, 200 ng CEA coated per well, 500 ng scFv MFE23 as positive control, anti-His tag antibody + HRP anti-mouse IgG, OPD read at 492 nm. As to the method:
FIG. 7. ELISA performed with 200 ng of CEA per well (left overnight at 4° C.), PBS (negative control), 500 ng of recombinant scFv MFE23 (positive control), and the P. pastoris supernatant transformed with pPICZαC-Chimera were then added after inducing expression with methanol. To develop the binding of scFvs to the CEA antigen, an anti-histidine tag antibody and a peroxidase-conjugated goat anti-mouse IgG secondary antibody were used. The peroxidase substrate was OPD, producing a yellow-orange product that can be detected at 492 nm.
An ELISA was performed using 200 ng of CEA per well, which was incubated overnight at 4° C., PBS (negative control), 500 ng of the recombinant scFv MFE23 (positive control), and the P. pastoris supernatant transformed with pPICZαC-Chimera after inducing expression with methanol were then added. To develop the binding of scFvs to the CEA antigen, an anti-histidine tag antibody and a peroxidase-conjugated goat anti-mouse IgG secondary antibody were used. The peroxidase substrate was OPD, producing a yellow-orange product that can be detected at 492 nm.

B1: recombinant scFv MFE23 (scFv)
scFv: QVKLQQSGAELVRSGTSVKLSCTASGFNIKDSYMHWLRQGPEQGLEWIGWIDPENGDTEYAPKFQGKATFTTDTSSNTAYLQLSSLTSEDTAVYYCNEGTPTGPYYFDYWGQGTTVTVSSGGGGSGGGGSGGGGSENVLTQSPAIMSASPGEKVTITCSASSSVSYMHWFQQKPGTSPKLWIYSTSNLASGVPARFSGSGSGTSYSLTISRMEAEDAATYYCQQRSSYPLTFGAGTKLELKR
notes: Positive control in the ELISA, 500 ng; also called anti-CEA scFv MFE23
As to B1, the binding result was “binds”.
